This note sets out measurements from patent US7786356B2, “Method for the production of calendic acid, a fatty acid containing delta 8,10,12 conjugated double bonds and related fatty acids having a modification at the delta 9 position” (E.I. du Pont de Nemours and Company, priority 1999, dated 2010).

The subject of assay [1] is somatic soybean embryos. Kind of assay: Production of calendic acid in somatic soybean embryos expressing CalFad2-1 or CalFad2-2. The assay is classed as cell-based. Conditions: single somatic embryos. An excerpt: The open-reading frames of these cDNAs were amplified by PCR in order generate the appropriate flanking restriction enzyme sites for cloning into the soybean expression vector. The oligonucleotide primers used for amplification of the CalFad2-1 open-reading frame were: 5′-ttgcggccgc[…]-3′ (sense, SEQ ID NO:18) and 5′-ttgcggccg[…]-3′ (antisense, SEQ ID NO:19). The oligonucleotide primers used for amplification of the CalFad2-2 coding sequence were: 5′-agcggccgcTATACCATGGGCAAG-3′ (sense, SEQ ID NO:20) and 5′-tgcggccgcTATGTTAAACTTC-3′ (antisense, SEQ ID NO:21). [Note: The sequences shown in lower case contain an added NotI site along with additional bases to facilitate restriction enzyme digestion.] The template was the cDNA corresponding to either EST ecs1c.pk009.n14 (CalFad2-1) or EST ecs1c.pk08.a24 (CalFad2-2), and Pfu polymerase (Stratagene) was used for the amplification reactions. The resulting PCR products were subcloned into the intermediate vector pCR-Script AMP SK(+) (Stratagene) according to the manufacturer's protocol. The amplified CalFad2-1 and CalFad2-2 coding sequences were then released with NotI digestion and then subcloned into the corresponding site of the soybean expression vector pKS67.
The PCR amplified coding sequences of CalFad2-1 and CalFa2-2 were fused with the β-conglycinin promoter and phaseolin termination sequences in vector pKS67 was transformed into somatic soybean embryos as follows. To induce somatic embryos, cotyledons, 3-5 mm in length dissected from surface sterilized, immature seeds of a soybean cultivar A2872 or JACK-910 were cultured in the light or dark at 26° C. on an appropriate agar medium for 6-10 weeks. Somatic embryos that produce secondary embryos were then excised and placed into a suitable liquid medium. After repeated selection for clusters of somatic embryos that multiplied as early, globular staged embryos, the suspensions were maintained as described below.
Soybean embryogenic suspension cultures were maintained in 35 mL liquid media on a rotary shaker, 150 rpm, at 26° C. with florescent lights on a 16:8 hour day/night schedule. Cultures were subcultured every two weeks by inoculating approximately 35 mg of tissue into 35 mL of liquid medium.
Soybean embryogenic suspension cultures were then transformed with the vector pKS67 containing the coding sequence for CalFad2-1 and CalFad2-2 by the method of particle gun bombardment (Klein et al. (1987) Nature (London) 327:70, U.S. Pat. No. 4,945,050). A Du Pont Biolisticä PDS1000/HE instrument (helium retrofit) was used for these transformations.
To […] of a 60 mg/mL […] gold particle suspension were added (in order): 5 mL DNA (1 mg/mL), 20 ml spermidine (0.1 M), and […] CaCl2 (2.5 M). The particle preparation was then agitated for three minutes, spun in a microfuge for 10 seconds and the supernatant removed. The DNA-coated particles were then washed once in 400 mL 70% ethanol and resuspended in 40 mL of anhydrous ethanol. The DNA/particle suspension was sonicated three times for one second each. Five mL of the DNA-coated gold particles was then loaded on each macro carrier disk.
Approximately 300-400 mg of a two-week-old suspension culture was placed in an empty 60×15-mm petri dish and the residual liquid removed from the tissue with a pipette. For each transformation experiment, approximately 5 to 10 plates of tissue were bombarded. Membrane rupture pressure was set at 1100 psi and the chamber was evacuated to a vacuum of 28 inches mercury. The tissue was placed approximately 3.5 inches away from the retaining screen and bombarded three times. Following bombardment, the tissue was divided in half and placed back into liquid and cultured as described above.
Five to seven days post bombardment, the liquid media was exchanged with fresh media, and eleven to twelve days post bombardment with fresh media containing […] hygromycin. This selective media was refreshed weekly. […]

Assay [2] concerns Saccharomyces cerevisiae INVSc1 cells. Nature of the assay: Expression of CalFad2-1 and CalFad2-2 in Saccharomyces cerevisiae. The assay is classed as cell-based. The following applies: cells grown in media containing 2 mM linoleic acid, 4 days at 16° C.; (w/w) of total fatty acids. An excerpt: The Calendula officinalis clones CalFad2-1 and CalFad2-2 were digested with the restriction enzymes EcoRI and XhoI. The resulting DNA fragments containing the entire cDNA inserts were purified by agarose gel electrophoresis. The purified cDNAs were ligated into the EcoRI and XhoI sites of the Saccharomyces cerevisiae expression vector pYES2 (Invitrogen) using T4 DNA ligase (New England Biolabs). The resulting plasmids pYes2/CalFad2-1 and pYes2/CalFad2-2 were introduced into Saccharomyces cerevisiae INVSc1 (Invitrogen Corp.) cells by lithium acetate-mediated transformation [Sherman F, Fink G R, Hicks J B, Methods in Yeast Genetics: A Laboratory Course Manual, Cold Spring Harbor Lab. Press, Plainview, N.Y. (1987)]. Transformed cells were selected for their ability to grow in the absence of uracil. […] In cells grown in media containing linoleic acid, calendic acid (18:3Δ^8trans,10trans,12cis) was detected in amounts of up to 2.9% (w/w) of the total fatty acids of cultures expressing CalFad2-1 (FIG. 3) and in amounts of up to 0.2% of the total fatty acids of cultures expressing CalFad2-2. […] No calendic acid was detected in cultures harboring the expression vector without a cDNA insert or in cells grown in the absence of exogenous linoleic acid. […]

Where [3] appears, read: n = 5, ± standard deviation, weight % of total fatty acids.

B1: CalFad2-1: Calendula officinalis fatty acid modifying enzyme (cDNA SEQ ID NO:1, protein SEQ ID NO:2) forming conjugated double bonds at delta-9 position (protein, listed as Calendula officinalis)
chain: MGKGASNKKVLERVPITKPPFEYNDLKKAVPPHCFSRPLFRSFYFLLHDIIVTCILFYVASNYIPMLPGFLSYIVWPVYWISQGVFLGRLWMIGHECGHHSFSNYRWVDDSVGFLIHTATLTPYFSFKYSHRNHHAHTNSMEYDEVHIPKRKSEALDLYFEFLGNNPMGLMITMLCKLTFGYAAYIMFNYTGKKHKSGGLASHFYPQSPLFNDSERNHVLFSDVGICIVLYACYRIVMVTGAMSAFYVYGIPWVIMSAILFAATYLQHTHPSIPHYDTTEWNWLRGALSTIDRDLGFFNMNKTHYHVIHHLFPVIPEYHAQEATEAIKPILGQYYKYDGTPFLKALWREMKDCIYVESDQGQKKQGIYWFKNKI
On to B1, for which, in assay [1] (n = 5, weight % of total fatty acids), the “Other, Fatty Acid Weight %” value is recorded as “≦1.3 Weight %”. In assay [1] (setting [3]), the “16:0, Fatty Acid Weight %” value was 12.2 ± 1.0 Weight %; the “18:0, Fatty Acid Weight %” value came to 3.5 ± 0.9 Weight %; the “18:1, Fatty Acid Weight %” value was found to be 9.0 ± 1.5 Weight %; the “18:2, Fatty Acid Weight %” value came to 52.2 ± 2.4 Weight %. For the same molecule, in assay [1] (setting [3]), the “18:3, Fatty Acid Weight %” value was 18.8 ± 3.0 Weight % and the “Calendic Acid, Fatty Acid Weight %” value turned out to be 3.1 ± 1.0 Weight %. The “calendic acid (18:3Δ8trans,10trans,12cis), amount of the total fatty acids” value in assay [2] is “up to 2.9%”.
